Results: US20190177704A1, “MODIFIED LUCIFERASE” (RIKEN, priority 2016, published 2019)
Changes are numbered by the printed parent chain. Names and notes keep the numbering of the source.

B1: Luc2: luciferase derived from Photinus pyralis consisting of an amino acid sequence represented by SEQ ID NO: 1 (protein, listed as Photinus pyralis)
chain: MEDAKNIKKGPAPFYPLEDGTAGEQLHKAMKRYALVPGTIAFTDAHIEVDITYAEYFEMSVRLAEAMKRYGLNTNHRIVVCSENSLQFFMPVLGALFIGVAVAPANDIYNERELLNSMGISQPTVVFVSKKGLQKILNVQKKLPIIQKIIIMDSKTDYQGFQSMYTFVTSHLPPGFNEYDFVPESFDRDKTIALIMNSSGSTGLPKGVALPHRTACVRFSHARDPIFGNQIIPDTAILSVVPFHHGFGMFTTLGYLICGFRVVLMYRFEEELFLRSLQDYKIQSALLVPTLFSFFAKSTLIDKYDLSNLHEIASGGAPLSKEVGEAVAKRFHLPGIRQGYGLTETTSAILITPEGDDKPGAVGKVVPFFEAKVVDLDTGKTLGVNQRGELCVRGPMIMSGYVNNPEATNALIDKDGWLHSGDIAYWDEDEHFFIVDRLKSLIKYKGYQVAPAELESILLQHPNIFDAGVAGLPDDDAGELPAAVVVLEHGKTMTEKEIVDYVASQVTTAKKLRGGVVFVDEVPKGLTGKLDARKIREILIKAKKGGKIAV
B2: N229Y_H310Q_S347N: luc2 variant with N229Y, H310Q and S347N mutations (SEQ ID NO: 4) (protein)
chain: B1 chain with N229Y, H310Q, S347N
modifications: Modified Luciferase
B3: N229H_S347N: luc2 variant with N229H and S347N mutations (SEQ ID NO: 3) (protein)
chain: B1 chain with N229H, S347N
modifications: Modified Luciferase
B4: N229Y_S347N: luc2 variant with N229Y and S347N mutations (SEQ ID NO: 2) (protein)
chain: B1 chain with N229Y, S347N
modifications: Modified Luciferase
B5: Variant b: luc2 variant with the mutations of column b in Table 1 (SEQ ID NO: 5) (protein)
chain: MEDAKNIKKGPAPFYPLEDGTAGEQLHKAMKRYALVPGAIAFTDAHIQVDVTYAEYFEMSVRLAEAMRRYGLNTNHRIVVCSENSLQFFMPVLGALFIGVAVAPANDIYNERELLNSMGISQPTVVFVSKKGLRKVLDVQKKLPIIRKIIIMDSKTDYQGFQSMYTFVASHLPPSFNEYDFVPECFDRDKTIALIMNSSGSTGLPKGVALPHRTACVRFSHARDPIFGYQNIPDTAILSVVPFHHGFGMFTTLGYLICGFRVVFMYRFEEELFLRSLQDYKIQSALLVPTLFSCLAKSTLIDKYDLSSLREIASGGAPLSKEVGEAVAKRFRLPGIRQGYGLTETTNAVMITPEGDRKPGSVGKVVPFFEAKVVDLVTGKTLGVNQRGELCVRGPMIMSGYVNNPEATNALIDKDGWLHSGDIAYWDEDEHFFIVDRLKSLIKYKGYQVAPAELEGILLQHPYIFDAGVAGLPDDDAGELPAAVVVLEHGKTMTEKEIVDYVASQVTTAKKLRGGVVFVDEVPRGPTGKLDARKIREILTKAKKDGKIAV
modifications: Modified Luciferase
B6: Variant c: luc2 variant with the mutations of column c in Table 1 (SEQ ID NO: 6) (protein)
chain: B5 chain with L86S, D138N, A169T, C185S, F264L, P526S
modifications: Modified Luciferase
B7: Variant d: luc2 variant with the mutations of column d in Table 1 (SEQ ID NO: 7) (protein)
chain: B5 chain with L86S, D138N, A169T, F264L, T290A, L291P
modifications: Modified Luciferase

Assay: Emission intensity of luciferase-expressing HeLa S3 cells with AkaLumine
Assay type: cell-based
Details: emission intensity of D-luciferin defined as 1; HeLa S3 cells
Experimental: (§1) A plasmid pcDNA3 was treated with use of BamHI and EcoRI, and genes encoding the respective luciferases above were each inserted into the plasmid pcDNA3 to produce plasmids for transfection.
(§2) HeLa S3 cells were used as mammalian cells to be transfected. For each of the luciferases above, HeLa S3 cells which had been cultured in D-MEM (low glucose, containing 10% FBS and 1% penicillin streptomycin, Wako Pure Chemical Industries, Ltd.) and were in an 80% confluent state were mixed with a transfection reagent (Polyethylenimine, Linear (MW 25,000, Polysciences, Inc)) and the plasmid for transfection (0.3 μg) to conduct transfection.
(§3) 24 hours after the transfection, the cells were dissociated through trypsinization, and were suspended in DMEM/F12 (10% FBS, gibco). Subsequently, centrifugation was conducted to remove the supernatant, and then the cells were resuspended in 1 mL DMEM/F12 so as to be used as luciferase-expressing cells.
(§4) In 1.5 mL Eppendorf tube, 20 μL of the produced luciferase-expressing cells and 80 μL of a substrate solution (prepared with pH 7.4 PBS) were mixed, and light emission from the obtained mixture was measured for one minute (with use of a luminometer AB-2280 manufactured by ATTO Corporation). An integrated value of the values thus measured within one minute was defined as the emission intensity.
(§5) As the substrate solution, AkaLumine or D-luciferin (80 μM each) was added. Results of the measurement of emission intensity are shown below in Table 2 as relative values with respect to 1.0 which is an emission intensity obtained in a case where AkaLumine was added to a sample of luc2.
(§6) Subsequently, with use of D-luciferin, AkaLumine, AkaLumine-OH, 6-AkaLumine, 0-AkaLumine, monoene NMe2, monoene NH2, monoene OH, and biphenyl as substrates, specificity to each of these substrates was evaluated. The substrates are respectively represented by the following chemical formulae. Each substrate solution contains a single kind of substrate.
(§7) Tables 3 through 8 show results of relative emission intensities in a case where the emission intensity of D-luciferin is defined as 1.

Molecule | relative emission intensity, AKA
B1 | 2.6 × 10^−1
B2 | 4.1 × 10^3
B3 | 1.7 × 10^3
B4 | 6.4 × 10^3
B5 | 2.4 × 10^3
B6 | 9.0 × 10^3
B7 | 3.4 × 10^3

Same assay, conditions: ratio of relative emission intensities, Table 2

Molecule | AkaLumine/D-luciferin
B1 | 1.8
B7 | 3.4 × 10^3

Same assay, conditions: relative to 1.0 = emission intensity of luc2 with AkaLumine; 80 μM substrate; integrated over one minute; HeLa S3 cells

Molecule | AkaLumine emission intensity, relative value
B1 | 1.0
B5 | 2.4
B6 | 6.8
B7 | 6.1

Assay: Emission intensity of luciferase-expressing HeLa S3 cells with D-luciferin
Assay type: cell-based
Details: emission intensity of D-luciferin defined as 1
Experimental: as §1, §2, §3, §4, §5, §6, §7

Molecule | relative emission intensity, Dluc
B1 | 1.0
B2 | 1.0
B3 | 1.0
B4 | 1.0
B5 | 1.0
B6 | 1.0
B7 | 1.0

Same assay, conditions: relative to 1.0 = emission intensity of luc2 with AkaLumine, 80 μM substrate, integrated over one minute

Molecule | D-luciferin emission intensity, relative value
B1 | 5.5 × 10^−1
B5 | not detected
B6 | not detected
B7 | 1.8 × 10^−3

Assay: Emission intensity of luciferase-expressing HeLa S3 cells with AkaLumine-OH
Assay type: cell-based
Details: emission intensity of D-luciferin defined as 1
Experimental: as §1, §2, §3, §4, §6, §7

Molecule | relative emission intensity, AKA-OH
B1 | not detected
B2 | 1.4
B3 | 0.9
B4 | 2.1
B5 | 0.9
B6 | 1.8
B7 | 9.8 × 10^−1

Assay: Emission intensity of luciferase-expressing HeLa S3 cells with 6-AkaLumine
Assay type: cell-based
Details: emission intensity of D-luciferin defined as 1
Experimental: as §1, §2, §3, §4, §6, §7

Molecule | relative emission intensity, 6-AKA
B1 | 1.6 × 10^−1
B2 | 1.1 × 10^3
B3 | 8.5 × 10^2
B4 | 9.6 × 10^2
B5 | 8.1 × 10^2
B6 | 1.8 × 10^3
B7 | 1.5 × 10^3

Assay: Emission intensity of luciferase-expressing HeLa S3 cells with 0-AkaLumine
Assay type: cell-based
Details: emission intensity of D-luciferin defined as 1
Experimental: as §1, §2, §3, §4, §6, §7

Molecule | relative emission intensity, O-AKA
B1 | 8.4 × 10^−3
B2 | 2.1 × 10^−3
B3 | 6.3

Assay: Emission intensity of luciferase-expressing HeLa S3 cells with monoene NMe2
Assay type: cell-based
Details: emission intensity of D-luciferin defined as 1
Experimental: as §1, §2, §3, §4, §6, §7

Molecule | relative emission intensity, monoNMe2
B1 | 1.1 × 10^−1
B4 | 2.4 × 10^2
B7 | 6.6

Assay: Emission intensity of luciferase-expressing HeLa S3 cells with monoene NH2
Assay type: cell-based
Details: emission intensity of D-luciferin defined as 1
Experimental: as §1, §2, §3, §4, §6, §7

Molecule | relative emission intensity, monoNH2
B1 | 3.0 × 10^−3
B2 | 7.3 × 10^−1
B3 | 4.3 × 10^−1
B4 | 1.7
B5 | 1.2 × 10^−1
B6 | 1.8 × 10^−1
B7 | 1.3 × 10^−1

Assay: Emission intensity of luciferase-expressing HeLa S3 cells with monoene OH
Assay type: cell-based
Details: emission intensity of D-luciferin defined as 1
Experimental: as §1, §2, §3, §4, §6, §7

Molecule | relative emission intensity, monoOH
B1 | 1.8 × 10^−3
B2 | 1.3 × 10^−1
B3 | not detected
B4 | 1.4 × 10^−2
B5 | 1.5 × 10^−2
B6 | 1.1 × 10^−1
B7 | 7.1 × 10^−2

Assay: Emission intensity of luciferase-expressing HeLa S3 cells with biphenyl
Assay type: cell-based
Details: emission intensity of D-luciferin defined as 1
Experimental: as §1, §2, §3, §4, §6, §7

Molecule | relative emission intensity, biph
B1 | 1.4 × 10^−2
B3 | 4.9
B4 | 6.9
B5 | 3.1
B6 | 4.1
B7 | 7.5
